In article PMC2680334, “Polo-Like Kinase 1 Directs Assembly of the HsCyk-4 RhoGAP/Ect2 RhoGEF Complex to Initiate Cleavage Furrow Formation” (PLoS Biology, 2009):
Positions count from the first letter of the chain named.

B1: CBD–HsCyk-4-Nt-4D (1–288), not incubated with Plk1, immobilised (domain or fragment, UniProt Q9H0H5 1-288, looked up)
chain: MDTMMLNVRNLFEQLVRRVEILSEGNEVQFIQLAKDFEDFRKKWQRTDHELGKYKDLLMKAETERSALDVKLKHARNQVDVEIKRRQRAEADCEKLERQIQLIREMLMCDTSGSIQLSEEQKSALAFLNRGQPSSSNAGNKRLSTIDEDGSILSDIDFDKTDEDLDWDSDLVKTFKLKKREKRRSTSRQFVDGPPGPVKKTRSIGSAVDQGNESIVAKTTVTVPNDGGPIEAVSTIETVPYWTRSRRKTGTLQPWNSDSTLNSRQLEPRTETDSVGTPQSNGGMRLHD
notes: HsCyk-4/MgcRacGAP N terminus, residues 1–288, four serines changed to aspartate; also called HsCyk-4-4D; source: E. coli BL21 (DE3) RIL, purified on chitin beads, kept on the beads
B2: Ect2-BRCT (1–421), soluble, CBD removed by TEV (domain or fragment, UniProt Q9H8V3-4 1-421, looked up)
chain: MAENSVLTSTTGRTSLADSSIFDSKVTEISKENLLIGSTSYVEEEMPQIETRVILVQEAGKQEELIKALKDIKVGFVKMESVEEFEGLDSPEFENVFVVTDFQDSVFNDLYKADCRVIGPPVVLNCSQKGEPLPFSCRPLYCTSMMNLVLCFTGFRKKEELVRLVTLVHHMGGVIRKDFNSKVTHLVANCTQGEKFRVAVSLGTPIMKPEWIYKAWERRNEQDFYAAVDDFRNEFKVPPFQDCILSFLGFSDEEKTNMEEMTEMQGGKYLPLGDERCTHLVVEENIVKDLPFEPSKKLYVVKQEWFWGSIQMDARAGETMYLYEKANTPELKKSVSMLSLNTPNSNRKRRRLKETLAQLSRETDVSPFPPRKRPSAEHSLSIGSLLDISNTPESSINYGDTPKSCTKSSKSSTPVPSKQSA
notes: Ect2 N terminus with the BRCT repeats, residues 1–421; the printed UniProt entry is the human protein; also called soluble Ect2-BRCT; source: E. coli BL21 (DE3) RIL, purified on chitin beads, eluted by TEV cleavage

Tests used:
Ect2 Ect2-BRCT, 1-421 [1] = target: Ect2 Ect2-BRCT, 1-421 (UniProt Q9H8V3); experiment: CBD bead pull-down, Coomassie or blot; details: reference: HsCyk-4-Nt without Plk1; sites S149,S157,S164,S170
Ect2 Ect2-BRCT, 1-421 [2] = target: Ect2 Ect2-BRCT, 1-421 (UniProt Q9H8V3); experiment: CBD bead pull-down, Coomassie; details: reference: 4A without Plk1
[3] = target: B2; experiment: pull-down; 100 nM CBD fusion on chitin beads, with or without 50 nM Plk1-T210D 1–306 and ATP (60 min, 30°C), washed; soluble partner added at equimolar amounts; 20 mM HEPES pH 7.2, 150 mM NaCl, 5 mM MgCl2, 1 mM DTT, 0.1% Triton X-100; 90 min at 4°C; Coomassie staining or Western blot; details: both partners purified
[4] = target: T1, CBD–HsCyk-4-Nt-4A (1–288), incubated with Plk1, immobilised (UniProt Q9H0H5 1-288, Ser149 to Ala | Ser157 to Ala | Ser164 to Ala | Ser170 to Ala, incubated with Plk1-T210D (1–306) and ATP; remaining phosphorylation sites not stated); experiment: as above; details: both partners purified
T1 construct: HsCyk-4/MgcRacGAP N terminus, residues 1–288, four serines changed to alanine; also called HsCyk-4-4A; source: E. coli BL21 (DE3) RIL, purified on chitin beads, incubated on the beads with Plk1-T210D 1–306 and ATP
T1 sequence (looked up): B1 chain with D149A, D157A, D164A, D170A

[5] = target: T2, CBD–HsCyk-4-Nt (1–288) phosphorylated by Plk1, immobilised (UniProt Q9H0H5 1-288, phosphorylated in vitro by Plk1-T210D (1–306); Ser149, Ser157, Ser164 and Ser170 named as the sites); experiment: as above; details: both partners purified
T2 construct: HsCyk-4/MgcRacGAP N terminus, residues 1–288; the printed UniProt entry is the human protein; also called HsCyk-4-wt (with Plk1); source: E. coli BL21 (DE3) RIL, purified on chitin beads, phosphorylated on the beads with Plk1-T210D 1–306
T2 sequence (looked up): B1 chain with D149S, D157S, D164S, D170S

[6] = target: T3, CBD–HsCyk-4-Nt-4D (1–288), incubated with Plk1, immobilised (UniProt Q9H0H5 1-288, Ser149 to Asp | Ser157 to Asp | Ser164 to Asp | Ser170 to Asp, incubated with Plk1-T210D (1–306) and ATP; remaining phosphorylation sites not stated); experiment: as above; details: both partners purified
T3 construct: HsCyk-4/MgcRacGAP N terminus, residues 1–288, four serines changed to aspartate; also called HsCyk-4-4D (with Plk1); source: E. coli BL21 (DE3) RIL, purified on chitin beads, incubated on the beads with Plk1-T210D 1–306 and ATP
T3 sequence (looked up): B1 chain

HsCyk-4/MgcRacGAP HsCyk-4-Nt, 1-288 (from UniProt Q9H0H5) HsCyk-4-Nt treated with Plk1-T210D kinase domain and ATP
fold change (Ect2 Ect2-BRCT, 1-421 [1]): 20.2 fold

HsCyk-4/MgcRacGAP HsCyk-4-Nt, 1-288 (from UniProt Q9H0H5) 4A treated with Plk1 and ATP
fold change (Ect2 Ect2-BRCT, 1-421 [2]): 3.1 fold

B1
binding result [3]: binds

B2
fold stimulation of binding upon Plk1 phosphorylation (against the protein without Plk1) [4]: 3.1 fold | fold stimulation of binding upon Plk1 phosphorylation (against the protein without Plk1) [5]: 20.2 fold | fold stimulation of binding upon Plk1 phosphorylation (against the protein without Plk1) [6]: 1.7 fold
